# According to patent US20220119451A1 (published 2022):
# Positions of bridges follow the written chain, without caps; N, C: chain ends. No end group written: not given here.
# B1: CLP001 peptide (peptide)
# peptide: HYPFRPHANQAS
# modifications: not fully specified
# notes: 12-mer from phage display
# B2: CLP002 peptide (peptide)
# peptide: WHRSYYTWNLNT
# modifications: not fully specified
# notes: 12-mer from phage display
# B3: CLP003 peptide (peptide)
# peptide: WHFSYNWRWLPP
# modifications: not fully specified
# notes: 12-mer from phage display
# B4: CLP004 peptide (peptide)
# peptide: DYHDPSLPTLRK
# modifications: not fully specified
# notes: 12-mer from phage display
# B5: CLP2C21 (peptide)
# peptide: CHRSYYCWNLNT
# modifications: disulfide 1-7
# notes: Cyclic variant of CLP002
# B6: CLP2C14 (peptide)
# peptide: CHRSYYTWNLNC
# modifications: disulfide 1-12
# notes: Cyclic variant of CLP002
# B7: CLP2TR3 (peptide)
# peptide: WHRSYYTWN
# notes: Truncated form of CLP002 (9 residues)
# Target: T1, recombinant human PD-L1 extracellular domain (ECD) protein (cat #FCL0784B, G&P Biosciences) (human, UniProt Q9NZQ7 19-238)
# T1 construct: extracellular domain; Bought protein; also called hPD-L1 protein; human PD-L1 protein
# Assay: blocking of the human CD80/PD-L1 interaction, 10 µM
# T1 sequence (Q9NZQ7 19-238): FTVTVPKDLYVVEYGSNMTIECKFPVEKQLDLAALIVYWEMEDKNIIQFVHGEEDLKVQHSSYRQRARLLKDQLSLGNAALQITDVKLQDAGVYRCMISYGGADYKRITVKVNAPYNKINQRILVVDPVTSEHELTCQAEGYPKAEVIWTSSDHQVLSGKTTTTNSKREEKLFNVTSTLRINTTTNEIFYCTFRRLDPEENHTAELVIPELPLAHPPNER
row,Molecule,blocking efficiency at 10 µM [%]
1,B1,~17
2,B2,~48
3,B3,~48
4,B4,~27

# Target: T1, recombinant human PD-L1 extracellular …
# Assay: blocking of the human CD80/PD-L1 interaction
row,Molecule,IC50 [nM]
1,B2,2450
2,B3,1620

# Target: T2, mouse PD-L1 on 4T1 cancer cells (mouse, UniProt Q9EP73 19-290)
# T2 construct: whole, on cells; also called mouse cancer cell line 4T1
# Assay: blocking of mouse PD-1 binding to 4T1 cells
# T2 sequence (Q9EP73 19-290): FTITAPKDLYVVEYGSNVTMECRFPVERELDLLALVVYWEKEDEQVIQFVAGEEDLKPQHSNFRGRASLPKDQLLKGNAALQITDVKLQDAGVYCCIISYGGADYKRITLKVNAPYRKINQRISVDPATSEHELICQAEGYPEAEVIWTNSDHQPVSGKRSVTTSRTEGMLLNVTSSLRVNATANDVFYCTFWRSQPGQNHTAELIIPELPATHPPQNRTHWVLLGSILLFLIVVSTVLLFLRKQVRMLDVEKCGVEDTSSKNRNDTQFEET
Molecule,Blocking Efficiency (%),IC50 [nM]
B1,35,910
B2,61,2440
B3,50,1000
B4,34,730

# Target: T1, recombinant human PD-L1 extracellular …
# Assay: PD1/PD-L1 blocking assay of Table 5 (format not stated)
row,Molecule,IC50 [nM]
1,B5,6
2,B6,5

# Target: T3, bovine serum albumin (bovine, UniProt P02769 25-607)
# T3 construct: Specificity control in SPR; also called BSA
# Assay: SPR, albumin (BSA) immobilised, peptide series injected
# Experimental: (§1) Evaluation of Binding Kinetics and Affinity By Surface Plasmon Resonance (SPR). […] PD-L1 protein was diluted to 10 μg/mL with sodium acetate buffer (pH 5.0, GE Healthcare, PA) and covalently coated onto a CM5 sensor chip (CM Dextran Sensor Chip, Biosensing Instrument) using the standard Amine Coupling Kit (GE Healthcare, PA). Approximately 6500 RU of PD-L1 protein were immobilized onto the chip. A second channel was used as a reference. HBS-EP+ buffer (GE Healthcare) was employed at a flow rate of 60 μL/min. […] The CM5 sensor chip was regenerated with 10 mM NaOH for 20 seconds. The results were analyzed using the software of Bi data analysis software.
# Nonspecific binding of the peptides against bovine serum albumin (BSA) using SPR was measured. […] MCF-7 human cancer cells are PD-L1 deficient and used as a negative control in this study. […] Results are represented as the mean±SD (n=3).
# T3 sequence (P02769 25-607 limits assumed): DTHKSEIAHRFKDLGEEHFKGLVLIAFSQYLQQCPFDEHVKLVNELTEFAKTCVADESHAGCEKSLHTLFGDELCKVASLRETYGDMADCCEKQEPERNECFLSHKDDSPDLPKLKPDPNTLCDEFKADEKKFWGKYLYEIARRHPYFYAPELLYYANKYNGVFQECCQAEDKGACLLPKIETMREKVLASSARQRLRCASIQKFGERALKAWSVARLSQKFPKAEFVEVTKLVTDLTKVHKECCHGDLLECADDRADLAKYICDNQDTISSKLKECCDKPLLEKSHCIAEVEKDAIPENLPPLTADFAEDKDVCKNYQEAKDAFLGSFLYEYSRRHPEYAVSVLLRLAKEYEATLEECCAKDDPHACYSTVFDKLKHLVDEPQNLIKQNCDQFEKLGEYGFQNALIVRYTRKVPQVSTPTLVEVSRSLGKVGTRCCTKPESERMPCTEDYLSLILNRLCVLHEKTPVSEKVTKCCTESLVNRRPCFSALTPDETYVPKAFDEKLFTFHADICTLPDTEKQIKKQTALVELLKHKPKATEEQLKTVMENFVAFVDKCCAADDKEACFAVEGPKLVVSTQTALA
row,Molecule,binding result
1,B1,no binding
2,B2,no binding
3,B3,no binding
4,B4,no binding

# Target: T4, recombinant human PD-L1 protein (Acro Biosystems, cat #EP-101 assay pair) (human, UniProt Q9NZQ7 19-238)
# T4 construct: Bought protein; construct not described; also called hPD-L1; human PD-L1 (AcroBiosystems, cat #EP-101)
# Assay: competitive SPR, peptide preincubated with human PD-L1, injected over immobilised PD-1
# Experimental: BI-4500A SPR and a CM-5 sensor chip pre-functionalized with streptavidin (Biosensing Instrument Inc., Tempe, Ariz.) were employed for the SPR analysis. […] Data was analyzed with SPR Data Analysis Version 3.8.4 (Biosensing Instrument Inc., Tempe, Ariz.).
# (§2) In this Example, various properties of the peptides of SEQ ID NO:5, SEQ ID NO:6 and SEQ ID NO:7 were evaluated. The procedures for generating these values are described above in the beginning of the Examples section.
# T4 sequence (Q9NZQ7 19-238 limits assumed): as the sequence (Q9NZQ7 19-238) above
row,Molecule,IC50 [nM]
1,B5,143
2,B6,119

# Target: mouse PD-L1 protein (G&P Biosciences, cat #FCL3502B) (mouse) (UniProt Q9EP73)
# Assay: ELISA, blocking of mouse PD-1 binding to mouse PD-L1 protein, 10 µM
# mouse PD-L1 protein (G&P Biosciences, cat #FCL3502B) (mouse), sequence (Q9EP73 19-239 limits assumed): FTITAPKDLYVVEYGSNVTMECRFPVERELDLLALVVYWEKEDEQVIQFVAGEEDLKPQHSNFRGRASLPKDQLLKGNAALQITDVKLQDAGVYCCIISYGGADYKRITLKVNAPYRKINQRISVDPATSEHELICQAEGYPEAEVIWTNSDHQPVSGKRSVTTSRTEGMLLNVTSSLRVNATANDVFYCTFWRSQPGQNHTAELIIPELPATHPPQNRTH
row,Molecule,blocking efficiency at 10 µM [%]
1,"anti-mouse PD-L1 antibody (BioXcell, 10F.9G2)",92

# Target: T1, recombinant human PD-L1 extracellular …
# Assay: PD1/PD-L1 blocking assay of Table 5 (format not stated), 10 µM
row,Molecule,% Blocking efficiency at 10 µM [%]
1,B5,78
2,B7,80
3,B6,75

# Target: T5, mouse PD-L1 protein (G&P Biosciences, cat #FCL3502B) (mouse, UniProt Q9EP73 19-239, limits assumed)
# T5 construct: Bought protein; construct not described; also called mPD-L1 protein
# Assay: ELISA, blocking of mouse PD-1 binding to coated mouse PD-L1 protein
# Experimental: (§3) Various concentrations of peptides were loaded into the wells and incubated for 1 hour at room temperature. […] Streptavidin-HRP (R&D systems) and chromogenic substrate were added into the wells. OD₄₅₀ was then recorded and referenced to OD₅₄₀.
# T5 sequence (Q9EP73 19-239 limits assumed): as above
Molecule,Blocking Efficiency (%),IC50 [nM]
B1,34,2430
B2,68,1910
B3,46,2260
B4,48,1910

# Target: T1, recombinant human PD-L1 extracellular …
# Assay: ELISA, blocking of PD-1 binding to coated human PD-L1 protein
# Experimental: as §3
Molecule,Blocking Efficiency (%),IC50 [nM]
B1,0,–
B2,85,2170
B3,60,2220
B4,52,1170

# Target: T5, mouse PD-L1 protein (G&P Biosciences, …)
# Assay: blocking of the mouse PD-1/PD-L1 interaction (text value, differs from Table 3); text of paragraph 79, not Table 3
# Experimental: as §3
row,Molecule,IC50 [nM]
1,B2,1510
2,B3,1960

# Target: T4, recombinant human PD-L1 protein (Acro …)
# Assay: ELISA, blocking of biotinylated human PD-1 binding to coated human PD-L1, 10 µM
# Experimental: (§4) Unbound protein was removed by washing twice with PBS (pH 7.2-7.4), 2% BSA was added for 1.5 h at 37° C. to block the plate. Specific concentrations of the peptides were dispensed into the appropriate wells and incubated for 2 h at 37° C. […] This was followed by the addition of streptavidin-HRP and chromogenic substrate (R&D systems). The color reaction was terminated with 2N H₂SO₄, absorbance was recorded at OD450 and referenced to OD540.
# as §2
row,Molecule,% Blocking efficiency at 10 µM (ELISA) hPD-L1 [%]
1,B5,85.9
2,B7,80
3,B6,75

# Target: T4, recombinant human PD-L1 protein (Acro …)
# Assay: ELISA, blocking of biotinylated human PD-1 binding to coated human PD-L1
# Experimental: as §4
row,Molecule,IC50 [nM]
1,B5,440
2,B6,180

# Target: T1, recombinant human PD-L1 extracellular …
# Assay: SPR, human PD-L1 ECD immobilised on CM5 chip
# Experimental: as §1
# The PD-L1 protein was immobilized on a CM5 golden chip by the direct amine coupling method. […] In a recent study, scientists constructed several chimeric antigen receptor (CAR) T cells with different affinities to ICAM-1.
Molecule,Kd [nM],koff [s⁻¹],kon [M⁻¹ s⁻¹]
B1,534,0.00281,5190
B2,366,0.00145,4520
B3,117,0.00162,22600
B4,544,0.00275,5140

# Target: T1, recombinant human PD-L1 extracellular …
# Assay: SPR, PD-L1 immobilised
# Experimental: as §1
row,Molecule,Kd [nM]
1,B5,124
2,B7,258
3,B6,2.78

# Target: T6, human PD-L1 on DU-145 cancer cells (human, UniProt Q9NZQ7 19-290)
# T6 construct: whole, on cells; Endogenous PD-L1 of a PD-L1-positive human cancer cell line
# Assay: blocking of PD-1 binding to DU-145 cells
# T6 sequence (Q9NZQ7 19-290): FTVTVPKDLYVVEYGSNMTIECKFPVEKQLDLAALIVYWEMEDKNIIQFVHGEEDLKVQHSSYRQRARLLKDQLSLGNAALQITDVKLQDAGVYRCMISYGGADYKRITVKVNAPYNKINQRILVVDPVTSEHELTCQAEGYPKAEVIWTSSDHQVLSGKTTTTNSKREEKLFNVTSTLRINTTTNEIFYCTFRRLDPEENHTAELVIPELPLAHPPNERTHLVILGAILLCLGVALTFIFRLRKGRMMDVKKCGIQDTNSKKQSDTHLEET
Molecule,Blocking Efficiency (%),IC50 [nM]
B1,0,–
B2,80,1430
B3,56,3050
B4,60,200

# Target: T7, mouse PD-L1 (Acro Biosystems, cat #PD1-M5220) (mouse, UniProt Q9EP73 19-238)
# T7 construct: Bought protein; construct not described; also called mPD-L1
# Assay: ELISA, blocking of biotinylated mouse PD-1 binding to coated mouse PD-L1
# Experimental: as §4, §2
# T7 sequence (Q9EP73 19-238 limits assumed): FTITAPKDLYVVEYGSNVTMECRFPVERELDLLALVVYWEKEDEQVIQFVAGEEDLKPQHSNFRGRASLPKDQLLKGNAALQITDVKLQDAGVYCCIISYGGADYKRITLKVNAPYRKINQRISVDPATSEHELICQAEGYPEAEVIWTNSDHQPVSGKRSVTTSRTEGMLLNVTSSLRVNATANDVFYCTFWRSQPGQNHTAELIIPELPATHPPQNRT
row,Molecule,IC50 [nM]
1,B5,460
2,B6,550

# Target: T3, bovine serum albumin
# Assay: SPR, BSA immobilised
row,Molecule,Kd [nM]
1,B5,1240
2,B7,2050
3,B6,408
